Measurements reported in patent US11142588B2, “Polypeptides which bind C-X-C chemokine receptor type 4 (CXCR4) and methods of treating or reducing the risk of fibrosis and cancer” (AdAlta Limited, priority 2015, dated 2021).

Experiments:
[1] = system: Ramos tumor cells; experiment: MTT cell proliferation assay; assay type: cell-based, human; conditions: 24 to 72 hrs, AM3-114 at 10 μM
Protocol: The ability of the CXCR4 molecules or polypeptides disclosed herein (i-bodies) to inhibit proliferation of Ramos tumor cells, a human Burkitt's lymphoma cell line expressing CXCR4 mentioned above, in vitro was examined in a MTT cell proliferation assay as described in (Lapteva (2005) Cancer Gene Therapy 12, 84-89). Cells were grown in a 96-well tissue culture plate and treated with a vehicle or the anti-CXCR4 body. The cells were then incubated with the MTT solution for approximately 4 hours. After this incubation period, a water-insoluble formazan dye is formed. After solubilization, the formazan dye is quantitated using a scanning multi-well spectrophotometer (ELISA reader).

[2] = system: HIV entry into CXCR4 expressing T-cells; experiment: In vitro HIV inhibition assay; assay type: cell-based
[3] = system: human CD34+ stem and progenitor cells; experiment: Mobilisation of human CD34+ cells in humanised NSG mice; assay type: in vivo, humanized NODSIL2Rγ (NSG) mice; conditions: humanised NSG mouse model, compared to AMD3100
Protocol: To acquire evidence of mobilisation of human CD34^+ stem and progenitor cells using CXCR4 i-bodies, the above mobilisation experiment was conducted in humanized NODSIL2Rγ (NSG) mice. NSG mice are severely immunodeficient and lack mature T cells, B-cells and NK cells and have severely defective innate immunity, which allows engraftment of human cells without subsequent rejection. NSG mice were transplanted with freshly sorted CD34^+ cord blood cells and upon confirmation of positive human CD45/CD34 engraftment (˜4-5 weeks) were used as a mouse model for human stem cell mobilisation.
Mobilised peripheral blood was harvested and assessed for CD34^+ (human stem and progenitors).

[4] = Murine air pouch model with SDF-1; assay type: in vivo, BALB/c mice; conditions: intraperitoneal, 30 minutes before SDF-1 6 μg
Protocol: The ability of i-bodies to block inflammation was evaluated in an in vivo murine air pouch model. The subcutaneous (s.c.) air pouch is an in vivo model used to study acute and chronic inflammation (Durate et al, Models of Inflammation: Carrageenan Air Pouch, Current Protocols in Pharmacology 5.6.1-5.6.8, March 2012). Injection of irritants into an air pouch in rats or mice induces an inflammatory response that can be quantified by the volume of exudate produced, the infiltration of cells, and the release of inflammatory mediators. An air pouch, is generated by injection of sterile air under the skin of the back of the mouse. […] Air pouch lavage fluid is then analyzed for cell trafficking and cytokine release.
The air pouch assay was performed on 7-week-old BALB/c mice. On days 1 and 3, 0.2 ml/g initial body weight (IBW) of sterile air was injected under the back skin to create the pouch. […] Thirty minutes later, SDF-1 (6 μg) was injected into the pouch. Four hours later, the mice were killed in a CO2 chamber and the air pouch was washed. Cells were collected, counted, and characterized by flow cytometry.

[5] = Bleomycin mouse model of pulmonary fibrosis; assay type: in vivo; conditions: day 4, dose not given
Description: The optimal dose of Bleomycin is 2 U/mouse and the optimal time for assessing fibrocyte recruitment was confirmed at day 4. At days 4 bronchoalvelolar lavage (BAL) fluids were collected for analysis of SDF-1 concentration. One half of the lung tissue was used to make single cell suspensions of the lung and the cells used for flow cytometry and assayed for CD45+, CXCR4+ and Collagen1+ (fibrocytes). The other half of the lung tissue was Sircol stained for the presence of collagen 1 and RNA will be tested for Col-1, Col-3 and SDF-1.
SDF-1, fibrocytes and collagen deposition were monitored at Day 4. Groups were dosed with the i-body just prior to administration with Bleomycin. One half of the lung tissue was minced and washed in PBS and used to make single cell suspensions of the lung with Collagenase A and dispase treatment. The cells were then used for flow cytometry and assayed for CD45+, CXCR4+ and Collagen1+ fibrocytes. […]

[6] = system: normal and IPF lung fibroblasts; experiment: Wound healing invasion assay of lung fibroblasts; assay type: cell-based, human; conditions: AMD3100 12 μM, 21H5 130 μg/ml
Protocol: To determine the role of CXCR4 and CXCL12 in fibroblast invasion, normal and IPF lung fibroblasts were utilized in a wound healing invasion assay. ImageLock 96 well plates (Essen Bioscience) were coated with 50 μg/ml of Basement membrane extract (BME; Trevigen) for one hour at room temperature. Normal, and fibroblasts generated from lung biopsies of idiopathic pulmonary fibrosis (IPF) patients showing slow progression or rapid progression of the disease were plated (36,000 cells per well) on the BME-coated plates and incubated overnight. […] The BME was allowed to polymerize by incubating the plate at 37° C. for 15 minutes. The plates were then inserted into an IncuCyte Zoom imaging system and images were acquired every 2 hours for approximately 50 hours. Invasion was quantified using IncuCyte software (Essen Bioscience).

[7] = system: Human platelet rich plasma; experiment: SDF-1α induced platelet aggregation; assay type: cell-based; conditions: 10 or 20 ug/mL, 100 nM SDF-1 alpha
Protocol: Experiments were carried out to examine whether the i-bodies could block platelet aggregation induced by SDF-1α. […] In the presence of negative control i-body 21H5 (or the isotype control for 12G5: mouse IgG2a). SDF-1 induced a robust and reproducible aggregation (the descending black curves, which indicate an increase in light transmission), which matches with what has been previously published.

[8] = MOG induced experimental autoimmune encephalomyelitis (EAE); assay type: in vivo, mouse; conditions: immunohistochemistry, hematoxylin and eosin
Protocol: This is the time that has been reported to be critical for infiltration of inflammatory cells across the blood brain barrier. […] It appears that blocking this migration can alleviate the symptoms of EAE.
Immunohistochemistry of the brains of the experimental mice was performed.

B1: 21H5: control i-body which does not bind to CXCR4, isotype control, SEQ ID NO: 82 (protein)
chain: LQVDIVPSQGEISVGESKFFLCQVAGDAKDKDISWFSPNGEKLTPNQQRISVVWNDDSSSTLTIYNANIDDAGIYKCVVTGSDAMSNYSYPISESEATVNVKIFQ
modifications: amino acid sequence encoding 21H5 i-body
**Q.** Which “growth of RAMOS cells” value [1] does the source give for B1 here?
**A.** Its value is “little effect on cell growth”.

**Q.** And the “effect in HIV inhibition assay” value [2]?
**A.** The value was “no effect”.

**Q.** What about the “mobilisation of human CD34+ stem cells” value [3] of the same molecule?
**A.** Its value is “do not mobilise stem cells”.

**Q.** And the “cell migration / leukocyte infiltration into the air pouch” value [4]?
**A.** The value was “did not inhibit cell migration”.

**Q.** And the “recruitment of fibrocytes into the lungs” value [5]?
**A.** The value was “Neither the vehicle alone nor the negative control i-body affected recruitment”.

**Q.** What about the “invasion / motility of normal, slow and rapid IPF lung fibroblast lines” value [6] of the same molecule?
**A.** The value was “had no effect”.

**Q.** What about the “blocking of SDF-1α induced platelet aggregation” value [7] of the same molecule?
**A.** Its value is “Neither the negative control i-body nor the control MAb had any effect”.

**Q.** What about the “inflammatory T-cell infiltration into the white matter of the brain” value [8] of the same molecule?
**A.** Its value is “Dramatic T-cell infiltration”.
